Article PMC11820797, “Rapid Detection of Alpha-Fetoprotein (AFP) with Lateral Flow Aptasensor”

Biological target: T1, alpha-fetoprotein (AFP) (UniProt P02771 19-609)
T1 sequence: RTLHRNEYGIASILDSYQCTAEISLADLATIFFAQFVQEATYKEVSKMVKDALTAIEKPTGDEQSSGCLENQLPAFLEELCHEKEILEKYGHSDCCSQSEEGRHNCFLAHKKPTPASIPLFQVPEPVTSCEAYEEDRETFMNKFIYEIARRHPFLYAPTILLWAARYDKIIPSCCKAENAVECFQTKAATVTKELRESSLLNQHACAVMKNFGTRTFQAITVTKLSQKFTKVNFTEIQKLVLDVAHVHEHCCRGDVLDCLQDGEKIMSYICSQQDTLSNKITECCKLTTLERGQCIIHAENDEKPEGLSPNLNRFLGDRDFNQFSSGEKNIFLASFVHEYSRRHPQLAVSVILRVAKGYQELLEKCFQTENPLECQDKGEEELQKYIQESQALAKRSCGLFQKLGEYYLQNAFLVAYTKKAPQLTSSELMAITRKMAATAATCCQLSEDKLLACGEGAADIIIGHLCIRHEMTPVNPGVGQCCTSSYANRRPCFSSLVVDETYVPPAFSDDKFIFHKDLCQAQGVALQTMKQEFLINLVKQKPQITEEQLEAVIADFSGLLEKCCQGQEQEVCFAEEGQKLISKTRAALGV
Assay: lateral flow aptamer sandwich; AP-273 as both AuNP probe and capture probe; 100 ng/mL AFP detected; LOD 10 ng/mL; Lateral flow strip, 50 uL running buffer (composition not in the material); pads pretreated with 0.05 M Tris-HCl, 2.5% Tween-20, 0.25% Triton X-100; assay pH and temperature not given
Settings: label: AuNP (Det-Apt); biotin-streptavidin (Cap-Apt)

B1: AP-273 (Det-Apt / Cap-Apt) (ssDNA)
DNA: GTGACGCTCCTAACGCTGACTCAGGTGCAGTTCTCGACTCGGTCTTGATGTGGGTCCTGTCCGTCCGAACCAATC
modifications: thiol (Det-Apt) or biotin (Cap-Apt), printed at 5' end
B1: binds.
